Results on four molecules are retold here after publication PMC9445081, “Structural basis for recognition of N-formyl peptides as pathogen-associated molecular patterns” (Nature Communications, 2022).

Assay [1] relates to FPR1. Particulars: non-formyl MLF versus fMLF; cited from earlier work.
The subject of assay [2] is FPR1. Particulars: cited from earlier work.
The target of assay [3] is T1, Gαi (α subunit of the Gi1 heterotrimer) (human, UniProt P63096 1-354).
T1 construct: Gαi of the Gi1 heterotrimer, human cDNA; The same chain as the first chain of m4; source: Trichoplusia ni Hi5 insect cells (baculovirus), purified as part of the Gi1 heterotrimer (Ni-NTA)
T1 sequence (P63096 whole entry, one chain of several): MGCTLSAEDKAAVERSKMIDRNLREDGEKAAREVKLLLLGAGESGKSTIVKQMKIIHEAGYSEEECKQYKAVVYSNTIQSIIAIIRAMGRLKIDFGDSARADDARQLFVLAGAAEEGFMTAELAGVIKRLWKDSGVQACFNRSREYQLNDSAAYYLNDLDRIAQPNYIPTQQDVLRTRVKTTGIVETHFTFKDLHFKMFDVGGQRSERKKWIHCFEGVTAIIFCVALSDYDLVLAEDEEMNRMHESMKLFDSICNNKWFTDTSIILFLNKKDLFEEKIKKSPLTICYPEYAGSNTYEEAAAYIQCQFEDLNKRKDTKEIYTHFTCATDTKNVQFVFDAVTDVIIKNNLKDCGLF
Put plainly: cryo-EM structure. The following applies: both partners purified.

Another assay addresses T2, FPR1 T265A (human, UniProt P21462 1-350, T265A).
T2 sequence (looked up): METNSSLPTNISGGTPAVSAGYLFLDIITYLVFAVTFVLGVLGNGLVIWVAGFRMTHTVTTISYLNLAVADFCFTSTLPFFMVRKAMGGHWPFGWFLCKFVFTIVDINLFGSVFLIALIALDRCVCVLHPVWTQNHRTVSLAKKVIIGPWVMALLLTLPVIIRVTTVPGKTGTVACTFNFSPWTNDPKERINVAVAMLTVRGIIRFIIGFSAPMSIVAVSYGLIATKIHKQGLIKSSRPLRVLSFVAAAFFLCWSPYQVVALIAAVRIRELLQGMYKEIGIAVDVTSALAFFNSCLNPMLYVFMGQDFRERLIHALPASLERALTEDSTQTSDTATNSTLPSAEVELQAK
Put plainly: cell-based or functional assay.

Assay [4] has as its target T3, WT FPR1 expressed in HeLa cells (human, UniProt P21462 1-350).
T3 sequence (looked up): T2 sequence (looked up) with A265T
The assay can be described thus: cell-based or functional assay.

The next assay addresses T4, FPR1 L109A (human, UniProt P21462 1-350, L109A).
T4 sequence (looked up): T2 sequence (looked up) with L109A, A265T
The assay can be described thus: cell-based or functional assay.

For a further assay, the target named is T5, FPR1 F81A (human, UniProt P21462 1-350, F81A).
T5 sequence (looked up): T2 sequence (looked up) with F81A, A265T
The assay can be described thus: cell-based or functional assay.

Another assay concerns the target T6, FPR1 V283A (human, UniProt P21462 1-350, V283A).
T6 sequence (looked up): T2 sequence (looked up) with A265T, V283A
Put plainly: cell-based or functional assay.

For another assay, the target named is T7, FPR1 F102A (human, UniProt P21462 1-350, F102A).
T7 sequence (looked up): T2 sequence (looked up) with F102A, A265T
Put plainly: cell-based or functional assay.

A further assay has as its target T8, FPR1 F110A (human, UniProt P21462 1-350, F110A).
T8 sequence (looked up): T2 sequence (looked up) with F110A, A265T
Put plainly: cell-based or functional assay.

The next assay addresses T9, FPR1 F291A (human, UniProt P21462 1-350, F291A).
T9 sequence (looked up): T2 sequence (looked up) with A265T, F291A
Put plainly: cell-based or functional assay.

Positions count from the first letter of the chain named. Where no end group is shown, it is not given here. The star is where a group is joined. For = O=C*

Take Met-Leu-Phe [MLF]: the “orders of magnitude less potent in FPR1 binding” value in the assay on FPR1 [1] was 3 orders of magnitude.
Take tBoc-MLF: the “pharmacological property at FPR1” value with FPR1 [2] was “antagonist”.

B1: formyl peptide receptor 1 (FPR1), N-terminal FLAG tag and C-terminal 6 x His tag (receptor, human)
chain: T2 sequence (looked up) with A265T
notes: formyl peptide receptor 1, Homo sapiens, cDNA Gene ID 2357; Solubilised in DDM/CHS and exchanged to LMNG (later LMNG/GDN/CHS); also called human FPR1; source: Sf9 insect cells (baculovirus), purified (anti-FLAG M1 resin, SEC) in detergent; not shown: FLAG, N-terminal, kept
For B1, the binding result in assay [3] is listed as “binds”.
For-Met-Leu-Phe [fMet-Leu-Phe (fMLF)]: the “pEC50 of inhibition of forskolin-elevated cAMP, transfected HeLa cells” value in the assay with FPR1 T265A stood at 7.8; in [4] it was 9.1; with FPR1 L109A, 8.1; in the assay with FPR1 F81A it was 8.1; in the assay with FPR1 V283A it was 8.8; in the assay with FPR1 F102A, 8.5. The “pEC50 of inhibition of forskolin-elevated cAMP, transfected HeLa cells” value came to 8.6 in the assay with FPR1 F110A and 8.4 with FPR1 F291A.
